Measurements reported in US20220195015A1 (published 2022).

B1: C565 (antibody, V domains shown)
VH: EVQLVESGGGLIQPGGSLRLSCAASGLIVSSNYMNWVRQAPGKGLEWVSLLYSGGSTYYADSVKGRFTISRDNSKNTLYLQMNSLRPEDTAVYYCARDLSVVGAFDIWGQGTMVTVSS
VL: EIVLTQSPGTLSLSPGERATLSCRASQSLPSTYLAWYQQKRGQAPRLLIYGASSRATGIPDRFSGSGSGTDFTLTISRLEPEDFAVYYCQQYGTSPRVTFGPGTKVDIK
B2: C049 (antibody, V domains shown)
VH: QVQLQESGPGLVKPSETLSLTCTVSGGSVSSGTFYWSWIRQPPGKGLEWIGYIHYSGSTNYNPSLKSRVTISVDTSKNQFSLRLSSVTAADTAVYYCARESFYYDRSGYYGSDAFDIWGQGTMVTVSS
VL: DIQMTQSPSTLSSSVGDRVTITCRASQNISRWLAWYQQKPGKAPKLLIYKASTLESGVPSRFSGSGSGTKFTLTISSLQPDDFATYYCQQYNSYLYTFGQGTKLEIK
B3: C707 (antibody, V domains shown)
VH: EVQLVESGGGLVKPGGSLRLSCAASGFTFSSYSMNWVRQAPGKGLAWVSSISSSNNIIYYADSVKGRFTISRDDAKDSLYLHMKSLRADDTAVYFCARVPSWAPYQLLPGPFDYWGQGILVTVSS
VL: IRMTQSPSSLSASVGDRVTITCQASQAIASYLSWYQHKPGRAPKLLIYDASNLEIGVPSRFSGSGSGTDFTFTISSLQSEDNATYYCQQYESLPGTFGGGTKVEIK
B4: C704 (antibody, V domains shown)
VH: VQLVESGGGVVQPGRSLRLSCAASGFTFSRYGMHWVRQAPGKGLEWVAVSSYDGSNEYYANSVKGRFTISRDNSKNTLYLQMNSLRAEDTAVYYCAKTGASYCGGDCPFHFDYWGQGTLVTVSS
VL: IRMTQSPSSLSASVGDRVTITCQASQDINNYLNWYQQKPGKAPKLLIYDASDLETGVPSRFSGGGSGTDFTFTISSLQPEDIATYYCQHYNNLPITFGQGTRLEIK
B5: C703 (antibody, V domains shown)
VH: EVQLLESGGGLVQPGGSLRLSCAGSGFTFSHYALSWVRQAPGKGLEWVSCISGTGGNSHYADSVKGRFTSSRDNSKNILYLQMNSLRAEDTAVYFCAKGGDFWSGYLIPFDSWGQGTLVTVSS
VL: SYELTQSPSVSVAPGKTARITCGGDSIGSKNVHWYQQKPGQAPVLVMYYDNDRPSGIPERFSGYNSGNTATLSISRVEAGDEADYYCLVWDGSGDPWVFGGGTKLTVL
B6: C708 (antibody, V domains shown)
VH: EVQLVESGGGLVQPGGSLRLSCAASGFSFSTYWMSWVRQAPGKGLEWVADIKQDGSEKYFVDSVKGRFTISRDNAKNSLYLHLNSLRAEDTAVYYCAREMAGSGNYYWFGYGMDVWGQGTTVTVSS
VL: IRMTQSPSSVSASVGDRVTITCRASQGISSWLAWYQQKPGKAPKLLIYAASSLQSGVPSRFSGSESGTDFTLTISSLQPEDFATYYCQQANSFPLTFGGGTKVEIK
B7: C709 (antibody, V domains shown)
VH: QVQLVQSGAEVRKPGASVKVSCMASGYTFNTYDINWVRQGTGQGLEWMGWMNPNSGNTGHAQKFQGRVAMTVNTSMNTAYMELSSLRSEDTAVYYCARGADMLNVAVGADFDYWGQGTLVTVSS
VL: QSALTQPPSASGSPGQSVTISCTGTSSDVGGYNFVSWFQQHPGKAPKLMIYEVSKRPSGVPDRFSGSKSANTASLTVSGLQAEDEADYFCSSYAGSNNWVFGGGTKLTVL
B8: C706 (antibody, V domains shown)
VH: EVQLVESGGGLVKPGGSLRLSCAASGFTFSNVWMSWVRQAPGKGLEWVGRIKSKIDGGTTEYAAPVKGRFIISRDDSKNTLSLQMNSLKTEDTAVYYCTTDHGREPPVHWGQGTLVTVSS
VL: EIVLTQSPGTLSLSPGERASLSCRARQSVYSNYLAWYQHKSGQAPRLLFYGASSRATDIPDRFSASGSGTDFTLTISRLEPEDFAVYYCLQYGPSPTFGPGTRLEIK

Target: SARS-CoV-2 spike protein receptor binding domain (RBD) (SARS-CoV-2, UniProt P0DTC2 319-539)
Assay: ELISA on plate-coated RBD

B1 was tested. Which EC50 did it give?
The EC50 was 0.00127 µg/mL.

Which EC50 does the source give for B2 here?
Its EC50 is 0.00409 µg/mL.

For B3, which EC50 is on record?
Its EC50 is 0.026 µg/mL.

B4 was tested. Which EC50 did it give?
Its EC50 is 0.0134 µg/mL.

How did the EC50 turn out when B5 was run?
The EC50 was 0.0109 µg/mL.

Which EC50 does the source give for B6 here?
Its EC50 is 0.13 µg/mL.

How did the EC50 turn out when B7 was run?
Its EC50 is 0.00756 µg/mL.

B8 was tested. Which EC50 did it give?
Its EC50 is 0.0735 µg/mL.
